Measured values from patent US20240117010A1 (NAVIGO PROTEINS, published 2024).

B1: 212522 (SEQ ID NO: 19) (designed binder)
chain: IAAKFDEAQQAAFYEILHLPNLTELQRNWFIQLLRDDPSVSLQVLGHAQYLNDSQAPKIAAKFDEAQQYAFYQILHLHNLTEEQRNAFIQSLRDDPSVSHEVLGEAKKLNESQAPK
B2: 212434 (SEQ ID NO: 1) (designed binder)
chain: NAAVLDIAQHSATEEIWWLPNLTKQQKVWFIMSLTQDPSVSKEVLGEAQKLNDSQAPK

What was measured:
[1] = target: SARS-CoV2 RBD (receptor binding domain of the spike protein) (SARS-Cov-2, UniProt P0DTC2 319-541)
[2] = target: SARS-CoV2 S1 protein (S1 domain of the spike protein) (SARS-Cov-2, UniProt P0DTC2 16-685)

| Binder | Kd [1] | Kd [2] |
| --- | --- | --- |
| B1 | 27.1 nM | 24.1 nM |
| B2 | 10.2 nM | 3.8 nM |
